Test results published in patent US20060035302A1, “Kinase substrates with multiple phosphorylation sites” (Applera Corporation, priority 2004, published 2006).
[ ]: non-standard residue; d: D form. The star is where a group is joined. dye2 = 5-carboxy-2′,7′-dipyridyl-sulfonefluorescein (Dye 2); Undecanoyl = CCCCCCCCCCC(=O)*; code O = not defined here

Key:
[1] = cited from earlier work
[2] = biological target: protein kinase p38βII (Homo sapiens, UniProt Q15759); test: Fluorogenic protein kinase assay, real-time fluorescence in 384-well plates; assay type: biochemical; details: substrate 8 μM; 10 and 100 μM ATP; compared with the kinase substrate with one recognition moiety (FIGS. 6A-6B)
Procedure: Kinase assays were performed using Coming 384-well, black, non-binding surface (NBS), microwell plates. Fluorescence was read in real time using a […] Gemini XS plate reader, with excitation and emission set at 500 and 550 respectively. The plate was read every minute for one hour at ambient temperature
Concentrations of dye-labeled peptides were determined by dilution of the purified peptides into dimethylformamide (200 μL) with 1 M NaOH (5 μL) and measuring the absorbance of either 5-carboxy-2′,7′-dipyridyl-sulfonefluorescein (i.e. dye2) at its absorbance maximum (548 nm) or 2′,7′,4,7-tetachloro-5-carboxy fluorescein (i.e. 2′,7′-dichloro-5-carboxy-4,7-dichlorofluorescein or “tet”) at its absorbance maximum (541 nm). The extinction coefficient of both dyes was assumed to be 80,000 cm^−1M^−1.
[…] The solution was pipetted into wells of a 384-well plate ([…] per well). Varying concentrations of ATP (final conc 10 and 100 μM) were added to the wells to initiate the kinase reaction. The plate was read at 500 nm excitation, 550 nm emission, each minute for 1 hour. The signal to background ratio for the kinase substrate with two recognition moieties (compound 2) was improved as compared to the signal to background ratio for the kinase substrate with one recognition moiety.

[3] = Net charge of substrate from its charged groups; assay type: physicochemical; details: pH 7.6; unphosphorylated substrate
Text: The net charge of the substrate can be established by including an appropriate number of negatively and positively charged groups in the substrate. For example, to establish a net neutral charge (net charge=0), the substrate is designed to contain an equal number of positively and negatively charged groups. […] Aspartate and glutamate contain carboxyl side chains having a single negative charge. A phosphoserine residue carries two negative charges on a phosphate group. […] In addition, the fluorescent moiety may also contain charged groups that should be considered to obtain a particular net charge of the substrate.
This is offset by the guanidinium groups in the two arginine residues, for a total of two positive charges. Thus, the net charge of the compound is about 0 at pH 7.6.

[4] = biological target: T1, C11-OOK(dye2)RRIPLSPLSPOOK(C11)-amide
T1 chain: KRRIPLSPLSPK

[5] = biological target: T2, C11OOK(dye 2)RRIPLSPOOK(C11)NH2
T2 chain: KRRIPLSPK

N[C@@H](CS)C(=O)O [Cysteine (C), Cysteine]
pK / pKa of side chain [1]: about 8

C11—OOK(dye2)RRIPLSPLSPOOK(C11)-amide ({Undecanoyl-code O-code O}-K(dye2)RRIPLSPLSP[code O][code O]K(Undecanoyl)-NH2; reading uncertain; also: printed as C11—OOK(dye2)RRIPLSPLSPOOK(C11)-amide) [compound 2, kinase substrate for p38βII; two recognition moieties, two hydrophobic moieties, Dye2]
signal to background ratio [2]: improved signal to background ratio
net charge [3]: about 0

N[C@@H](Cc1c[nH]cn1)C(=O)O [Histidine (H), Histidine]
pK / pKa of side chain [1]: about 7

B1: protein kinase p38βII (protein)
chain: MSGPRAGFYRQELNKTVWEVPQRLQGLRPVGSGAYGSVCSAYDARLRQKVAVKKLSRPFQSLIHARRTYRELRLLKHLKHENVIGLLDVFTPATSIEDFSEVYLVTTLMGADLNNIVKCQALSDEHVQFLVYQLLRGLKYIHSAGIIHRDLKPSNVAVNEDCELRILDFGLARQADEEMTGYVATRWYRAPEIMLNWMHYNQTVDIWSVGCIMAELLQGKALFPGSDYIDQLKRIMEVVGTPSPEVLAKISSEHARTYIQSLPPMPQKDLSSIFRGANPLAIDLLGRMLVLDSDQRVSAAEALAHAYFSQYHDPEDEPEAEPYDESVEAKERTLEEWKELTYQEVLSFKPPEPPKPPGSLEIEQ
signal to background ratio (fluorescence kinase assay, 10 and 100 µM ATP) [4]: The signal to background ratio for the kinase substrate with two recognition moieties (compound 2) was improved as compared to the signal to background ratio for the kinase substrate with one recognition moiety
signal to background ratio, fold improvement over the substrate with one recognition moiety [4]: improved the signal to background ratio 3 to 5 fold
rate of reaction / signal to background ratio (fluorescence kinase assay, 10 and 100 µM ATP) [5]: comprising two protein kinase recognition moieties has an improved signal to background ratio as compared to the kinase substrate comprising one protein kinase recognition moiety, C11OOK(dye 2)RRIPLSPOOK(C11)NH2
